Results from patent publication US20190092846A1 (Novartis, published 2019).
Residue numbers refer to the chain shown, from its start.

T1: human TGF-β3 (human, UniProt P10600 301-412)
T1 construct: also called hTGF-b3; hTGFbeta-3
T1 sequence: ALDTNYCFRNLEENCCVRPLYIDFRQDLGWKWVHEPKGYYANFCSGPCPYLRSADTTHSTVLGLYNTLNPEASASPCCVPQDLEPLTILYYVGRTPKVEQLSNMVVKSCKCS

T2: mouse recombinant TGF-β2 (mouse, UniProt P27090 303-414)
T2 construct: mature; also called mTGF-b2; Mouse TGF-β2
T2 sequence (looked up): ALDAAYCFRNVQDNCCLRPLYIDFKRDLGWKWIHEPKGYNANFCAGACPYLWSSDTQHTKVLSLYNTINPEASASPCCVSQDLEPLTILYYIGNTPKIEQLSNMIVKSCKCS

T3: human recombinant TGF-β2 (human, UniProt P09858 303-414 (pig entry))
T3 construct: also called hTGF-b2; hTGFbeta-2
T3 sequence: T2 sequence (looked up) with T59S, K60R, N94K

T4: human TGFβ-2 (residues 303-414, SEQ ID NO: 122) (human, UniProt P61812 303-414)
T4 construct: Construct of the crystal structure with the MOR14797 Fab; also called TGFβ-2 dimer (chains A and B)
T4 sequence: T2 sequence (looked up) with T59S, K60R, N94K

B1: MOR14797 (antibody, human IgG1, kappa, V domains shown)
VH: QVTLRESGPALVKPTQTLTLTCTFSGFSLSTSGMGVGWIRQPPGKALEWLAHIYWNDDKSYSTSLKTRLTISKDTSKNQVVLTMTNMDPVDTATYYCARDFYYSGYFDSWGQGTLVTVSS
VL: DIQMTQSPSSLSASVGDRVTITCRASQDISNYLNWYQQKPGKAPKLLIFGASSLQSGVPSRFSGSGSGTDFTLTISSLQPEDFATYYCQQTNTMNTFGQGTKVEIKR
notes: (no LALA)
B2: MOR14799 (antibody, human IgG1, lambda, V domains shown)
VH: QVQLVQSGAEVKKPGESLKISCKGSGYSFTRYYVAWVRQMPGKGLEWMGWIDPGQSNTRYSPSFQGQVTISADKSISTAYLQWSSLKASDTAMYYCARMLAWGWFDYWGQGTLVTVSS
VL: SYELTQPLSVSVALGQTARITCSGDNLGGYYAHWYQQKPGQAPVLVIYDKSDRPSGIPERFSGSNSGNTATLTISRAQAGDEADYYCASYDSSLMMVFGGGTKLTVLG
B3: MOR14800 (antibody, human IgG1, lambda, V domains shown)
VH: B2 VH
VL: B2 VL with K50T
B4: MOR14805 (antibody, human IgG1, lambda, V domains shown)
VH: B2 VH with Q55T
VL: B2 VL
B5: MOR14809 (antibody, human IgG1, lambda, V domains shown)
VH: QVQLVQSGAEVKKPGESLKISCKGSGYSFTRYWIAWVRQMPGKGLEWMGIIDPGTSDTRYSPSFQGQVTISADKSISTAYLQWSSLKASDTAMYYCARIDKSLILHSAFDYWGQGTLVTVSS
VL: SYELTQPLSVSVALGQTARITCSGDNLGGYYAYWYQQKPGQAPVLVIYETNNRPSGIPERFSGSNSGNTATLTISRAQAGDEADYYCASTTQDYLVFVFGGGTKLTVLG
B6: MOR14787 (antibody, human IgG1, kappa, V domains shown)
VH: QVQLVQSGAEVKKPGSSVKVSCKASGGTFSSYAISWVRQAPGQGLEWMGVIVPKWGHPQYAQKFQGRVTITADESTSTAYMELSSLRSEDTAVYYCAREGDFVVLVLTEHYMGGFDVWGQGTLVTVSS
VL: DIQMTQSPSSLSASVGDRVTITCRASQSIDEYLNWYQQKPGKAPKLLIYAGSNLQSGVPSRFSGSGSGTDFTLTISSLQPEDFATYYCLQGYSYPRTFGQGTKVEIKR
B7: 1D11 (antibody, V domains shown)
VH: QVQLQQSGPELVRPGASVKLSCKASGYIFITYWMNWVKQRPGQGLEWIGQIFPASGSTNYNEMFEGKATLTVDTSSSTAYMQLSSLTSEDSAVYYCARGDGNYALDAMDYWGQGTSVTVSS
VL: DIVLTQSPASLAVSLGQRATISCRASESVDSYGNSFMHWYQQKSGQPPKLLIYLASNLESGVPARFSGSGSRTDFTLTIDPVEADDAATYYCQQNNEDPLTFGAGTKLEIK
B8: MOR14797 Fab (Fab, V domains shown)
VH: B1 VH
VL: B1 VL
notes: also called Fab fragment of MOR14797

Tests used:
human TGF-β3 [1] = target: T1, human TGF-β3; assay: BiaCORE (surface plasmon resonance)
mouse recombinant TGF-β2 [2] = target: T2, mouse recombinant TGF-β2; assay: BiaCORE (surface plasmon resonance)
human recombinant TGF-β2 [3] = target: T3, human recombinant TGF-β2; assay: BiaCORE (surface plasmon resonance)
human TGF-β1 [4] = target: T5, human TGF-β1 (human, UniProt P01137 279-390); assay: not named in the sentence (it points to Table 4)
T5 construct: also called TGFbeta-1; TGFbeta 1

human TGF-β3 [5] = target: T1, human TGF-β3; assay: cell-based or functional assay
mouse recombinant TGF-β2 [6] = target: T2, mouse recombinant TGF-β2; assay: cell-based or functional assay
human recombinant TGF-β2 [7] = target: T3, human recombinant TGF-β2; assay: cell-based or functional assay
human TGF-β1 [8] = target: T5, human TGF-β1; assay: cell-based or functional assay
human recombinant TGF-β2 [9] = target: T3, human recombinant TGF-β2; assay: ratio of the KD values of Table 4
human recombinant TGF-β2 [10] = target: T3, human recombinant TGF-β2; assay: conservative reading of the KD value of Table 4
human recombinant TGF-β2 [11] = target: T3, human recombinant TGF-β2; assay: ratio with the conservative KD of 100 fM
human recombinant TGF-β2 [12] = target: T3, human recombinant TGF-β2; assay: conservative reading of the KD value of Table 4; conservative interpretation of the Table 4 KD, not a new measurement
human TGF-β1 [13] = target: T5, human TGF-β1; assay: cell-based or functional assay; remark: listed apart in the source
[14] = target: T4, human TGFβ-2 (residues 303-414, SEQ ID …); assay: X-ray crystal structure of the complex
Experimental: As detailed below, the individual components of the complex were produced using separate expression systems and were combined to generate the purified complex. X-ray crystallography was then employed to generate diffraction data for TGFβ-2 bound to the MOR14797 Fab, elucidating the antigen-binding site.
The TGFβ-2-MOR14797 complex was concentrated to 20 mg/ml, followed by centrifugation at 20,000×g for 10 min prior to dispensing crystallization screens. Crystals were grown at 20° C. using a sitting drop vapor diffusion setup. 0.1 μl of the TGFβ-2-MOR14797 complex was mixed with 0.1 μl of a reservoir solution containing 0.1 M HEPES (pH 7.5) and 70% (v/v) MPD, and the drop was equilibrated against 45 μl of the reservoir solution. Crystals were flash-cooled directly in liquid nitrogen and were sent to the Advanced Photon Source (Argonne National Laboratory, USA) for collection of diffraction data at beamline 17-ID. Datasets were processed using autoPROC (version 1.1.6, Global Phasing Ltd.) to a resolution of 2.4 Å in space group P2₁2₁2₁ with cell dimensions a=77.2 Å, b=122.1 Å, c=130.1 Å, α=90°, β=90°, and γ=90°. […] The Rwork and Rfree values are 17.5% and 23.0%, respectively. The RMSD values for the bond lengths and angles were 0.008 Å and 1.054°.

T5 sequence (P01137 279-390 limits assumed): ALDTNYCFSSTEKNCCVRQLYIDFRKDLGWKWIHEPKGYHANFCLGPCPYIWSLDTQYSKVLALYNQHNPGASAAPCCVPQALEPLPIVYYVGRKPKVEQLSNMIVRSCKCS

Binder	Kd (human TGF-β3 [1])	Kd (mouse recombinant TGF-β2 [2])	Kd (human recombinant TGF-β2 [3])	binding result (human TGF-β1 [4])	RGA (CAGA-12 luc/Smad-2/3 RGA; IC 50 [pM]) (human TGF-β3 [5])	CK (IC 50 [pM]), Skeletal Muscle Cell Differentiation Assay (Creatine Kinase) (mouse recombinant TGF-β2 [6])	RGA (CAGA-12 luc/Smad-2/3 RGA; IC 50 [pM]) (mouse recombinant TGF-β2 [6])	CK (IC 50 [pM]), Skeletal Muscle Cell Differentiation Assay (Creatine Kinase) (human recombinant TGF-β2 [7])	RGA (CAGA-12 luc/Smad-2/3 RGA; IC 50 [pM]) (human recombinant TGF-β2 [7])	RGA (CAGA-12 luc/Smad-2/3 RGA; IC 50 [pM]) (human TGF-β1 [8])	fold lower KD for TGFbeta-2 than for TGFbeta-3 (human recombinant TGF-β2 [9])	Kd (human recombinant TGF-β2 [10])	fold lower KD for TGFβ2 than for TGFbeta-3 (human recombinant TGF-β2 [11])	fold lower KD for TGFβ2 than for TGFbeta 3 (human recombinant TGF-β2 [9])	fold lower KD for TGFβ2 than for TGFbeta 3 (human recombinant TGF-β2 [11])	Kd (human recombinant TGF-β2 [12])	IC50 (read off the curve) (CAGA-12 luciferase reporter gene assay, HEK293T/17) (human TGF-β1 [13])	binding result [14]
B1	27.4 nM	0.633 pM	0.00446 pM	no binding	> 100000 pM	1500 pM	329 pM	105 pM	8.4 pM	> 100000 pM	6e+06 fold	≤ 0.0001 nM	270000 fold	–	–	–	–	–
B2	0.0199 nM	0.00277 pM	0.00108 pM	no binding	> 100000 pM	909 pM	138 pM	1050 pM	78 pM	> 100000 pM	–	–	–	> 18000 fold	200 fold	≤ 0.0001 nM	–	–
B3	> 1000 nM	0.00109 pM	–	no binding	> 100000 pM	1200 pM	123 pM	491 pM	29 pM	> 100000 pM	–	≤ 0.0001 nM	–	–	–	–	–	–
B4	0.0705 nM	–	0.97 pM	no binding	> 100000 pM	629 pM	248 pM	315 pM	106 pM	> 100000 pM	73 fold	–	–	–	–	–	–	–
B5	> 1000 nM	0.00236 pM	0.0524 pM	no binding	> 100000 pM	800 pM	598 pM	220 pM	94 pM	> 100000 pM	–	≤ 0.0001 nM	–	–	–	–	–	–
B6	> 1000 nM	1.89 pM	–	no binding	> 100000 pM	3000 pM	> 100000 pM	366 pM	2.8 pM	> 100000 pM	–	–	–	–	–	–	–	–
B7	0.02 nM	–	117 pM	–	32 pM	–	–	–	4370 pM	108 pM	–	–	–	17 fold	–	–	~0.5 nM	–
B8	–	–	–	–	–	–	–	–	–	–	–	–	–	–	–	–	–	binds
